In test [1] the target is T1, C-reactive protein (UniProt P02741 19-224).
T1 construct: also called CRP
T1 sequence: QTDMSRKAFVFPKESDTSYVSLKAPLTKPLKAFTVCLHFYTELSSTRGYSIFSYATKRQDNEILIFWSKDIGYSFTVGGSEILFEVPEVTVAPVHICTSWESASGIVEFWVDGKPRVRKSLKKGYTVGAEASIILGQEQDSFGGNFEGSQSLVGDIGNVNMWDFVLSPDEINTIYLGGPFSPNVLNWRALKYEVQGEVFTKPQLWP
The test is described as follows: single-nanopore electrophysiology, CRP added to cis.

For test [2], the target named is His6-TEV-YaxB (full-length YaxB monomer) (Yersinia enterocolitica). Put plainly: 1:1 mixing of monomers, SEC, insertion into lipid bilayers.

This is an account of results in patent US20260176683A1 (RIJKSUNIVERSITEIT GRONINGEN, published 2026).

B1: YaxAΔ40BN-strepII-70aa-flex nanopore (other)
chain 1: […]
chain 2: MSYYHHHHHHDYDIPTTENLYFQGWSHPQFEKGSSGSTSNASAGTGSATGSNSTAGASSGNSAGTGTSSGSTGSANSSAGTGSGSATASAGNSGTSTAGNSTAEISTFPHSGLSYPDINFKIFSQGVKNISHLAQFKTTGVEVLQEKALRVSLYSQRLDVIVRESLSSLQVKLENTLALTYFTTLEEIDEALISQDIDEESKSEMRKERINIIKNLSNDITQLKQLFIEKTELLDKSSSDLHNVVIIEGTDKVLQAEQLRQKQLTEDIATKELERKEIEKKRDKIIEALDVIREHNLVDAFKDLIPTGENLSELDLAKPEIELLKQSLEITKKLLGQFSEGLKYIDLTDARKKLDNQIDTASTRLTELNRQLEQSEKLIAGVNAIIKIDQEKSAVVVEAEKLSRAWHIFIHEITALQGTSLNEVELSKPLIKQQIYLESLIKQLI
Regarding B1, the binding result in test [1] is “no binding (tested: 20 nM CRP)”.

B2: His6-TEV-YaxA (full-length YaxA monomer) (other)
chain: MSYYHHHHHHDYDIPTTENLTRSSENLYFQSGGTQTQLAIDNVLASAESTIQLNELPKVVLDFITGEQTSVARSGGIFTKEDLINLKLYVRKGLSLPTRQDEVEAYLGYKKIDVAGLEPKDIKLLFDEIHNHALNWNDVEQAVLQQSLDLDIAAKNIISTGNEIINLINQMPITLRVKTLLGDITDKQLENITYESADHEVASALKDILDDMKGDINRHQTTTENVRKKVSDYRITLTGGELSSGDKVNGLEPQVKTKYDLMEKSNMRKSIKELDEKIKEKRQRIEQLKKDYDKFVGLSFTGAIGGIIAMAITGGIFGAKAENARKEKNALISEVAELESKVSSQRALQTALEALSLSFSDIGIRMVDAESALNHLDFMWLSVLNQITESQIQFAMINNALRLTSFVNKFQQVITPWQSVGDSARQLVDIFDEAIKEYKKVYG
Regarding B2, the binding result in test [2] is reported as “binds”.
